Assay results: US20090099029

T1: Bovine, dephosphorylated, Myelin Basic Protein (MBP), P02687
T1 chain: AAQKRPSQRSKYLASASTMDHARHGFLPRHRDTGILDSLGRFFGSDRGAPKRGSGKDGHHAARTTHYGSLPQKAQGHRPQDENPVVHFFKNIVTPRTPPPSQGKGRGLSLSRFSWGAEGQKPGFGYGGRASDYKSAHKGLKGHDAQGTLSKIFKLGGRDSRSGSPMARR


Molecular target: T1, Bovine, dephosphorylated, Myelin Basic …

Protein	MBP Kinase Activity
PAK3 (protein) MSDGLDNEEKPPAPPLRMNSNNRDSSALNHSSKPLPMAPEEKNKKARLRSIFPGGGDKTNKKKEKERPEISLPSDFEHTIHVGFDAVTGEFTGIPEQWARLLQTSNITKLEQKKNPQAVLDVLKFYDSKETVNNQKYMSFTSGDKSAHGYIAAHPSSTKTASEPPLAPPVSEEEDEEEEEEEDENEPPPVIAPRPEHTKSIYTRSVVESIASPAVPNKEVTPPSAENANSSTLYRNTDRQRKKSKMTDEEILEKLRSIVSVGDPKKKYTRFEKIGQGASGTVYTALDIATGQEVAIKQMNLQQQPKKELIINEILVMRENKNPNIVNYLDSYLVGDELWVVMEYLAGGSLTDVVTETCMDEGQIAAVCRECLQALDFLHSNQVIHRDIKSDNILLGMDGSVKLTDFGFCAQITPEQSKRSTMVGTPYWMAPEVVTRKAYGPKVDIWSLGIMAIEMVEGEPPYLNENPLRALYLIATNGTPELQNPERLSAVFRDFLNRCLEMDVDRRGSAKELLQHPFLKLAKPLSSLTPLIIAAKEAIKNSSR	Weak
EPHB1 (protein) SRKRAYSKEAVYSDKLQHYSTGRGSPGMKIYIDPFTYEDPNEAVREFAKEIDVSFVKIEEVIGAGEFGEVYKGRLKLPGKREIYVAIKTLKAGYSEKQRRDFLSEASIMGQFDHPNIIRLEGVVTKSRPVMIITEFMENGALDSFLRQNDGQFTVIQLVGMLRGIAAGMKYLAEMNYVHRDLAARNILVNSNLVCKVSDFGLSRYLQDDTSDPTYTSSLGGKIPVRWTAPEAIAYRKFTSASDVWSYGIVMWEVMSFGERPYWDMSNQDVINAIEQDYRLPPPMDCPAALHQLMLDCWQKDRNSRPRFAEIVNTLDKMIRNPASLKTVATITAVPSQPLLDRSIPDFTAFTTVDDWLSAIKMVQYRDSFLTAGFTSLQLVTQMTSEDLLRIGITLAGHQKKILNSIHSMRVQISQSPTAMA	Strong
PAK6 (protein) MFRKKKKKRPEISAPQNFQHRVHTSFDPKEGKFVGLPPQWQNILDTLRRPKPVVDPSRITRVQLQPMKTVVRGSAMPVDGYISGLLNDIQKLSVISSNTLRGRSPTSRRRAQSLGLLGDEHWATDPDMYLQSPQSERTDPHGLYLSCNGGTPAGHKQMPWPEPQSPRVLPNGLAAKAQSLGPAEFQGASQRCLQLGACLQSSPPGASPPTGTNRHGMKAAKHGSEEARPQSCLVGSATGRPGGEGSPSPKTRESSLKRRLFRSMFLSTAATAPPSSSKPGPPPQSKPNSSFRPPQKDNPPSLVAKAQSLPSDQPVGTFSPLTTSDTSSPQKSLRTAPATGQLPGRSSPAGSPRTWHAQISTSNLYLPQDPTVAKGALAGEDTGVVTHEQFKAALRMVVDQGDPRLLLDSYVKIGEGSTGIVCLAREKHSGRQVAVKMMDLRKQQRRELLFNEVVIMRDYQHFNVVEMYKSYLVGEELWVLMEFLQGGALTDIVSQVRLNEEQIATVCEAVLQALAYLHAQGVIHRDIKSDSILLTLDGRVKLSDFGFCAQISKDVPKRKSLVGTPYWMAPEVISRSLYATEVDIWSLGIMVIEMVDGEPPYFSDSPVQAMKRLRDSPPPKLKNSHKVSPVLRDFLERMLVRDPQERATAQELLDHPFLLQTGLPECLVPLIQLYRKQTSTC	Negative
PHKG2 (protein) MTLDVGPEDELPDWAAAKEFYQKYDPKDVIGRGVSSVVRRCVHRATGHEFAVKIMEVTAERLSPEQLEEVREATRRETHILRQVAGHPHIITLIDSYESSSFMFLVFDLMRKGELFDYLTEKVALSEKETRSIMRSLLEAVSFLHANNIVHRDLKPENILLDDNMQIRLSDFGFSCHLEPGEKLRELCGTPGYLAPEILKCSMDETHPGYGKEVDLWACGVILFTLLAGSPPFWHRRQILMLRMIMEGQYQFSSPEWDDRSSTVKDLISRLLQVDPEARLTAEQALQHPFFERCEGSQPWNLTPRQRFRVAVWTVLAAGRVALSTHRVRPLTKNALLRDPYALRSVRHLIDNCAFRLYGHWVKKGEQQNRAALFQHRPPGPFPIMGPEEEGDSAAITEDEAVLVLG	Negative
